Tests used:
[1] = tested on: HeLa Kyoto; assay: solubility change mitosis vs G1/S (difference of NP-40 vs SDS log2 ratios) (log2 ratio difference); higher = more soluble in mitosis
[2] = tested on: HeLa Kyoto; assay: solubility in G1/S (NP-40 vs SDS abundance) (log2 ratio); higher = more soluble; conditions: cell cycle stage: G1/S
[3] = tested on: HeLa Kyoto; assay: melting temperature (median over replicates), in situ; higher = more thermally stable
[4] = tested on: HeLa Kyoto; assay: thermal stability score vs G1/S (z-score of summed log2 fold changes over temperatures); higher = more thermally stable than in G1/S
[5] = cell cycle stage: early G1 (4.5 h after nocodazole release)
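Wherever melting temperature (median over replicates), in situ is given: HeLa Kyoto cells synchronized by double thymidine or nocodazole block, proteins quantified by TMT10plex mass spectrometry, three independent biological replicates.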
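Wherever solubility change mitosis vs G1/S (difference of NP-40 vs SDS log2 ratios) is given: synchronized HeLa Kyoto cells (double thymidine block for G1/S, nocodazole release for mitosis), protein amounts in NP-40 versus SDS lysates quantified by mass spectrometry, three biological replicates.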
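Wherever solubility in G1/S (NP-40 vs SDS abundance) is given: HeLa Kyoto cells arrested at G1/S by double thymidine block, proteins quantified by TMT10plex mass spectrometry in mild NP-40 versus SDS extracts, three biological replicates.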
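Wherever thermal stability score vs G1/S (z-score of summed log2 fold changes over temperatures) is given: synchronized HeLa Kyoto cells, proteins quantified by TMT10plex mass spectrometry, three biological replicates, mitosis taken 0.5 h after nocodazole release, G1/S directly after double thymidine block.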

Sequence of NLE1 (chain, as listed by the source): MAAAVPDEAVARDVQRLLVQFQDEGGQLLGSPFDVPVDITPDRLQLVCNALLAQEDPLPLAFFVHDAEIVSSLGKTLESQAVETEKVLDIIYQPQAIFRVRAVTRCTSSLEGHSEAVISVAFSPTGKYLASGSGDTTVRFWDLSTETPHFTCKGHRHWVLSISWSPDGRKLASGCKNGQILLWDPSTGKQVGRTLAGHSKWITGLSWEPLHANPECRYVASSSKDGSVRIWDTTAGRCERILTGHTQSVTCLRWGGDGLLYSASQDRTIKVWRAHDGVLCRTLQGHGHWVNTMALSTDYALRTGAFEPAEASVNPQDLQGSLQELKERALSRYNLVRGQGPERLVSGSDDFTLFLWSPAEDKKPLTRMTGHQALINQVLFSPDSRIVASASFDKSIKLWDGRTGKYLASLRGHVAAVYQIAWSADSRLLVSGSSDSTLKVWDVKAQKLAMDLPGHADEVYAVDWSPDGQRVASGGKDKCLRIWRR

## MSSAPRRPAKGADSFCTPEPESLGPGTPGFPEQEEDELHRTLGVERFEEILQEAGSRGGEEPGRSYGEEDFEYHRQSSHHIHHPLSTHLPPDARRRKTPQGPGRKPRRRPGASPTGETPTIEEGEEDEDEASEAEGARALTQPSPVSTPSSVQFFLQEDDSADRKAERTSPSSPAPLPHQEATPRASKGAQAGTQVEEAEAEAVAVASGTAGGDDGGASGRPLPKAQPGHRSYNLQERRRIGSMTGAEQALLPRVPTDEIEAQTLATADLDLMKSHRFEDVPGVRRHLVRKNAKGSTQSGREGREPGPTPRARPRAPHKPHEVFVELNELLLDKNQEPQWRETARWIKFEEDVEEETERWGKPHVASLSFRSLLELRRTLAHGAVLLDLDQQTLPGVAHQVVEQMVISDQIKAEDRANVLRALLLKHSHPSDEKDFSFPRNISAGSLGSLLGHHHGQGAESDPHVTEPLMGGVPETRLEVERERELPPPAPPAGITRSKSKHELKLLEKIPENAEATVVLVGCVEFLSRPTMAFVRLREAVELDAVLEVPVPVRFLFLLLGPSSANMDYHEIGRSISTLMSDKQFHEAAYLADEREDLLTAINAFLDCSVVLPPSEVQGEELLRSVAHFQRQMLKKREEQGRLLPTGAGLEPKSAQDKALLQMVEAAGAAEDDPLRRTGRPFGGLIRDVRRRYPHYLSDFRDALDPQCLAAVIFIYFAALSPAITFGGLLGEKTQDLIGVSELIMSTALQGVVFCLLGAQPLLVIGFSGPLLVFEEAFFSFCSSNHLEYLVGRVWIGFWLVFLALLMVALEGSFLVRFVSRFTQEIFAFLISLIFIYETFYKLVKIFQEHPLHGCSASNSSEVDGGENMTWAGARPTLGPGNRSLAGQSGQGKPRGQPNTALLSLVLMAGTFFIAFFLRKFKNSRFFPGRIRRVIGDFGVPIAILIMVLVDYSIEDTYTQKLSVPSGFSVTAPEKRGWVINPLGEKSPFPVWMMVASLLPAILVFILIFMETQITTLIISKKERMLQKGSGFHLDLLLIVAMGGICALFGLPWLAAATVRSVTHANALTVMSKAVAPGDKPKIQEVKEQRVTGLLVALLVGLSIVIGDLLRQIPLAVLFGIFLYMGVTSLNGIQFYERLHLLLMPPKHHPDVTYVKKVRTLRMHLFTALQLLCLALLWAVMSTAASLAFPFILILTVPLRMVVLTRIFTDREMKCLDANEAEPVFDEREGVDEYNEMPMPV [SLC4A2]
[1]
  solubility change mitosis (log2): 0.0677
[2]
  solubility in G1/S (log2): 0.054
[3]; cell cycle stage: G1/S
  melting temperature: 53.9 °C
[3]; cell cycle stage: mitosis
  melting temperature: 54.1 °C
[4]; [5]
  thermal stability score: 0.464
[4]; cell cycle stage: mitosis
  thermal stability score: -0.912

## MVFYFTSSSVNSSAYTIYMGKDKYENEDLIKHGWPEDIWFHVDKLSSAHVYLRLHKGENIEDIPKEVLMDCAHLVKANSIQGCKMNNVNVVYTPWSNLKKTADMDVGQIGFHRQKDVKIVTVEKKVNEILNRLEKTKVERFPDLAAEKECRDREERNEKKAQIQEMKKREKEEMKKKREMDELRSYSSLMKVENMSSNQDGNDSDEFM [CCDC25]
[1]
  solubility change mitosis (log2): -0.118
[2]
  solubility in G1/S (log2): 0.0307
[3]; cell cycle stage: G1/S
  melting temperature: 50.4 °C
[3]; cell cycle stage: mitosis
  melting temperature: 50.6 °C
[4]; [5]
  thermal stability score: -0.0583
[4]; cell cycle stage: mitosis
  thermal stability score: -0.134

## MARAAALLPSRSPPTPLLWPLLLLLLLETGAQDVRVQVLPEVRGQLGGTVELPCHLLPPVPGLYISLVTWQRPDAPANHQNVAAFHPKMGPSFPSPKPGSERLSFVSAKQSTGQDTEAELQDATLALHGLTVEDEGNYTCEFATFPKGSVRGMTWLRVIAKPKNQAEAQKVTFSQDPTTVALCISKEGRPPARISWLSSLDWEAKETQVSGTLAGTVTVTSRFTLVPSGRADGVTVTCKVEHESFEEPALIPVTLSVRYPPEVSISGYDDNWYLGRTDATLSCDVRSNPEPTGYDWSTTSGTFPTSAVAQGSQLVIHAVDSLFNTTFVCTVTNAVGMGRAEQVIFVRETPNTAGAGATGGIIGGIIAAIIATAVAATGILICRQQRKEQTLQGAEEDEDLEGPPSYKPPTPKAKLEAQEMPSQLFTLGASEHSPLKTPYFDAGASCTEQEMPRYHELPTLEERSGPLHPGATSLGSPIPVPPGPPAVEDVSLDLEDEEGEEEEEYLDKINPIYDALSYSSPSDSYQGKGFVMSRAMYV [PVRL2]
[1]
  solubility change mitosis (log2): 0.0111
[2]
  solubility in G1/S (log2): 0.108
[3]; cell cycle stage: G1/S
  melting temperature: 56.9 °C
[3]; cell cycle stage: mitosis
  melting temperature: 55.4 °C
[4]; [5]
  thermal stability score: -2.1
[4]; cell cycle stage: mitosis
  thermal stability score: -3.87

## MAAERGAGQQQSQEMMEVDRRVESEESGDEEGKKHSSGIVADLSEQSLKDGEERGEEDPEEEHELPVDMETINLDRDAEDVDLNHYRIGKIEGFEVLKKVKTLCLRQNLIKCIENLEELQSLRELDLYDNQIKKIENLEALTELEILDISFNLLRNIEGVDKLTRLKKLFLVNNKISKIENLSNLHQLQMLELGSNRIRAIENIDTLTNLESLFLGKNKITKLQNLDALTNLTVLSMQSNRLTKIEGLQNLVNLRELYLSHNGIEVIEGLENNNKLTMLDIASNRIKKIENISHLTELQEFWMNDNLLESWSDLDELKGARSLETVYLERNPLQKDPQYRRKVMLALPSVRQIDATFVRF [PPP1R7]
[1]
  solubility change mitosis (log2): 0.033
[2]
  solubility in G1/S (log2): 0.332
[3]; cell cycle stage: G1/S
  melting temperature: 52.7 °C
[3]; cell cycle stage: mitosis
  melting temperature: 52.8 °C
[4]; [5]
  thermal stability score: -1.16
[4]; cell cycle stage: mitosis
  thermal stability score: -2.37

## NLE1
[1]
  solubility change mitosis (log2): 0.0775
[2]
  solubility in G1/S (log2): -0.35
[3]; cell cycle stage: G1/S
  melting temperature: 53 °C
[3]; cell cycle stage: mitosis
  melting temperature: 54.2 °C
[4]; [5]
  thermal stability score: -1.88
[4]; cell cycle stage: mitosis
  thermal stability score: -4.55

## MRSIRSFANDDRHVMVKHSTIYPSPEELEAVQNMVSTVECALKHVSDWLDETNKGTKTEGETEVKKDEAGENYSKDQGGRTLCGVMRIGLVAKGLLIKDDMDLELVLMCKDKPTETLLNTVKDNLPIQIQKLTEEKYQVEQCVNEASIIIRNTKEPTLTLKVILTSPLIRDELEKKDGENVSMKDPPDLLDRQKCLNALASLRHAKWFQARANGLKSCVIVLRILRDLCNRVPTWAPLKGWPLELICEKSIGTCNRPLGAGEALRRVMECLASGILLPGGPGLHDPCERDPTDALSYMTIQQKEDITHSAQHALRLSAFGQIYKVLEMDPLPSSKPFQKYSWSVTDKEGAGSSALKRPFEDGLGDDKDPNKKMKRNLRKILDSKAIDLMNALMRLNQIRPGLQYKLLSQSGPVHAPVFTMSVDVDGTTYEASGPSKKTAKLHVAVKVLQAMGYPTGFDADIECMSSDEKSDNESKNETVSSNSSNNTGNSTTETSSTLEVRTQGPILTASGKNPVMELNEKRRGLKYELISETGGSHDKRFVMEVEVDGQKFRGAGPNKKVAKASAALAALEKLFSGPNAANNKKKKIIPQAKGVVNTAVSAAVQAVRGRGRGTLTRGAFVGATAAPGYIAPGYGTPYGYSTAAPAYGLPKRMVLLPVMKFPTYPVPHYSFF [STRBP]
[1]
  solubility change mitosis (log2): -0.0522
[2]
  solubility in G1/S (log2): -0.314
[3]; cell cycle stage: G1/S
  melting temperature: 50.5 °C
[3]; cell cycle stage: mitosis
  melting temperature: 52.5 °C
[4]; [5]
  thermal stability score: -0.506
[4]; cell cycle stage: mitosis
  thermal stability score: -0.00226

— the supplement of paper PMC5998384
